Sequences and labels used below:
B1: L66 (antibody, V domains shown)
VH: EVQLVESGGGVVRPGGSLRLSCAASGFTFDDYGMSWVRQAPGKGLEWVSGINWNGGSTGYADSVKGRFTISRDNAKNSLYLQMNSLRAEDTALYYCARDRVTMVRGVIMDYYGMDVWGQGTTVTVSS
VL: QTVVTQEPSLTVSPRGTVTLTCSSSTGAVTSGYYPGWFQLKPGQAPMSLIYSARKKHSWTPARFSGSLLGGKAALTLSGVQPEDEAEYYCLLYYGGAYVFGTGTKVTVLG
B2: N547 (antibody, V domains shown)
VH: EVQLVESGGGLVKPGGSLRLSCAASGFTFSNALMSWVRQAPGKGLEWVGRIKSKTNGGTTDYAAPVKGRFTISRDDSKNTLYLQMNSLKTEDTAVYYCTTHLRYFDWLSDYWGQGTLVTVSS
VL: QSVLTQPPSMSAAPGQKVTISCSGSSSNIGNNYISWYQQLPGTAPKVLIYDNNKRPSGIPDRFSGSKSGTSATLGITGLQTGDEADYYCGSWDSSLSAGVFGTGTKVTVLG
B3: C40 (antibody, V domains shown)
VH: QLQLQESGPGLVKPSETLSLTCTVSGGSISSSFYYCGWIRQPPGKGLEWIGSIYYRGSTYYNPSLKSRVTISVDTSKNQFSLKLSSVTAADTAVYYCARRVTMVRGVKGDYFDYWGQGTLVTVSS
VL: DIQMTQSPSSLSASVGDRVTITCRASQGISSWLAWYQQKPEKVPKSLIYAASSLQSGVPSRFSGSGSGTDFTLTISSLQPEDFATYYCQQYNYYPLTFGGGTKVEIKR
B4: C40G1 (antibody, V domains shown)
VH: B3 VH
VL: B3 VL

The target in the first experiment is T1, OVA (UniProt P01012 2-386).
T1 sequence: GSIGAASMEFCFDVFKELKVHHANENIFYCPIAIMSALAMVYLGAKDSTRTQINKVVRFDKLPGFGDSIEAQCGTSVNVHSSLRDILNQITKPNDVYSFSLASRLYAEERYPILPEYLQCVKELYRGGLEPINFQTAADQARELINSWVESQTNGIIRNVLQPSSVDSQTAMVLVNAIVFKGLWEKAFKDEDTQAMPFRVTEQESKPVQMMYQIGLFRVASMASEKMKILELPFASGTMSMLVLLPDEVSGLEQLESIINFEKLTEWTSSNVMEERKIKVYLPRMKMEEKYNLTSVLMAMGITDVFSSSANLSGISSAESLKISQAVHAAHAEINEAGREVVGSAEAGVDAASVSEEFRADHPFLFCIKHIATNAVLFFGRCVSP
Description: ELISA.
For the molecule B1, the binding result is “no binding (tested: below 0.1 at OD450nm)”.
Take B2: the binding result is recorded as “no binding (tested: below 0.1 at OD450nm)”.
On the same count and under the same terms, then B3, with “no binding (tested: below 0.1 at OD450nm)”.
Same read-out and setting: then B4, with “no binding (tested: below 0.1 at OD450nm)”.

For a further experiment, the target named is BSA (UniProt P02769 25-607). Description: ELISA.
BSA, sequence (P02769 25-607 limits assumed): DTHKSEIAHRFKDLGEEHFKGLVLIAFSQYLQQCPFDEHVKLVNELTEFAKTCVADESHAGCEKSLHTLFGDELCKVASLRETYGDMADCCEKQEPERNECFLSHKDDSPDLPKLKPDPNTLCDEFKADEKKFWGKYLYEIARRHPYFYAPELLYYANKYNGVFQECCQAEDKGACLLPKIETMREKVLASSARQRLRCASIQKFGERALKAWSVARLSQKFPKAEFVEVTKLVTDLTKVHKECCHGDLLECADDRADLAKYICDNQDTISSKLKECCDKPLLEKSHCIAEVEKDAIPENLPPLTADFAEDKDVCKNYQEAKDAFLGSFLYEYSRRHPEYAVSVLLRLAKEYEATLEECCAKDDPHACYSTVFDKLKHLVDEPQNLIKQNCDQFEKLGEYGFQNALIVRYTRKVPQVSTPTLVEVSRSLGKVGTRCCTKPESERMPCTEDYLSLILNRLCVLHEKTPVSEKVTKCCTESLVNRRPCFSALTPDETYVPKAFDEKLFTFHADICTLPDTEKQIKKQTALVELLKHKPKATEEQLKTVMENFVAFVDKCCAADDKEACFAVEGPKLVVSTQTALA
With B1, the binding result is reported as “no binding (tested: below 0.1 at OD450nm)”.
On to B2, for which the binding result is recorded as “no binding (tested: below 0.1 at OD450nm)”.
On to B3, for which the binding result is recorded as “no binding (tested: below 0.1 at OD450nm)”.
On the same count and under the same terms, then B4, with “no binding (tested: below 0.1 at OD450nm)”.

For the origin of these results see patent US20090162366A1 (KIRIN PHARMA, published 2009).
